Laboratory results published in a protein production outcome set (Wang et al. 2014).

Assay: label from the status in PepcDB records

Sequence	protein production
MVEAPPPELRILSAGDSSYSGSGWSRVPHVWLRDEIRLSGEPRVRQGKREGDRRFRGRGRDRGRWHLGCPRKALFSNLLGTVYRCGNLNFSRDGNSVISPVGNRVTVFDLKNNRSDTLPLATKYNIKCVGLSPDGRLAIIVDEGGAALLVSLVCRSVLHHFHFKGSVHSVSFSPDGRKFVITKGNIAQMYHAPGKKREFNAFVLDKTYFGPYDETTCIDWTDDSKCFVVGSKDMSTWVFGAERWDNLIYYALSGHKDAIVACFFESNSLDLYSLSQDGALCVWQCDTPPEGLRLKAPRGWKADILQREKEEEEEEDEEGEGNRETTIRGKAVPAEQERVGKVKYSRLAKYFLNKEGDFNNLTAAAYHKKTHLLVTGFASGIFHLHELPEFNLIHSLSISDQRVASVAINSSGDWIAFGCSGLGQLLVWEWQSESYVLKQQGHFNSMVALAYSPDGQYIVTGGDDGKVKVWNTLSGFCFVTLTEHSSGVTGVTFTATGHVIVTSSLDGTVRAYDLHRYRNFRTFTSPRPTQFSCVAVDSSGEIVSAGAQDSFEIFVWSMQTGRLLDVLSGHEGPISGLCFNPMKSILASASWDKTVRLWDMFDSWRTKETLSLTSDVLAVTYRPDGAELAVATLNSQITFWDPENAVQVGSIEGRHDLKTGRKELDKITAKHSAKGKAFTTVCYSADGQNILAGGMSKFVCLYHVREQILVKRFELSCNFSLDAMEEFLNRRKMTEFGNLALIDQDAGEENGVAIPLPGVRKGDMSSRHFKPEIRVTSLRFSPTGRCWAATSTEGLLIFSLDAQMLFDPFELDTSVTPGRIREALRQREFTRAILMAFRLNEKKLAQEALEAVPQNEIEVVSASLPELYVVKVLEFLAASFEESRHLEFYLIWTQKLLMSHGQRLKSRAGQLLPVVQFLQKGLQRHLDDISKLCDWNRYNIQYALAVSKQRGMKRTLEPVDTEEDTDASDEDSLHLLRAAEEEEEGMLV	failed
MVEGVHCVPDSVELMPKQHDIPRARLRIVVHEGRNHEVRELVKNAGLEVHSLKRVRIGGFRLPSDLGLGKHVELKQSELKALGWKN	not failed
MVESKNTELSQGTWLNKPKSVFQEAGKVTLETDEKTDFWRETFYGFTRDSGHFLGVETGSAFTAQVRVQGSYESLYDQAGIMVRIDDGHWLKAGIEISDGHAMLSSVLTNGKSDWSTAVYGGNARDFWLRVTVEKGVLRIQVSSDKKTWPLVRLAPFPTSDHYLVGPMACTPERGGLKVTFSEWSLTAPLGKALHDLS	failed
MVETLPALEIGEDERLDLENLATGAFFPVKGFMTREEALSVAHEMRLPTGEVWTIPILLQFREKPRVGPGNTVALLHGGERVALLHVAEAYELDLEALARAVFGTDSETHPGVARLYGKGPYALAGRVEVLKPRPRTPLEKTPEEVRAFFRQRGWRKVVAFQTRNAPHRAHEYLIRLGLELADGVLVHPILGAKKPDDFPTEVIVEAYQALIRDFLPQERVAFFGLATPMRYAGPKEAVFHALVRKNFGATHFLVGRDHAGVGDFYDPYAAHRIFDRLPPLGIEIVKVGAVFHCPLCGGIASERTCPEGHREKRTAISMTKVRALLREGKAPPSELVRPELLPILRRGV	not failed
MVFCGDDVATGVRDAITYCYRCKGRKVTLSDHEADDDNKPIGDFDYDHEVVVFEIRSRAMEKLRKKRRTGMEGLTYKFVKEYDIENEFCSVRSSFSECCMSDISIEGYMTAKTEFSRSSSLKGLELENQWKMHYVNEIKKGSVIQEFCHCQGWPFGLGRKAALLPPLPKSPAESWSWRKPTRVTPVPFV	failed
MVFIMENTNKIASLELGRLLAMFAIIALHSQVFMTYLLMDDFPVFGNIFNQLTRFAVPFFFILSGYFIQPKLTHTPLKTIQSYCAPLFKIWIVWSVLSLALPFHWRKVAENGYLAERTGYWNWLTQNPLNALFEGGMVHLWFIPALIIAVSIIGLLIHFKKTTWLIPIAVILYVYGLAGGSYQTLTEVWTPFFTRNGPFFSTLMVVIGFELRRREITLSSTNALILLLVGFAIHFSEAYWLTQFDVPFNLHDFLIGTPLMGIGVFFLLLSKPQLGHHPITFTLSKHVLGIYVCHLLFVVVFLNITGMMGITLAMRDFVIVFGTATASTLFVLIMDKTPFRQMLFR	failed
MVFSGPASPGLTLAPLRRGGIDPCYRVDAAGAIWRTSLMPSGPVTARITRAATDAADCQAWGEGADEFIDRLPALLGVDDDASDFAPAEPTIAKARRQVPHLRLGRTGRMLEALIPAIIEQRVYGLDAWRAWRALVTKFGTPAPGPAPDGMRVVPSAEVWRRIPSWEFHRANVDPGRARTIVMCAQRADSLERLTHERAAVTLRSLPGVGEWTAAETMQRVFGDADALSAGDYHLATLVGQALTGEPVDDAGMVELLEPMRPHRHRAVRLLEASGMFVYRRRGARQAIPKLRTLLEHHHHHH	failed
MVFTLADSVSQVALGPSWLDPMELLSGSGPFGSFILPAMLAIVFIESGLLFPLLPGDSLLFTGGLLANQADPFAPLWLVLILCPIAAILGDQVGYWIGHKFHPRLVNRPDGRIFKQEYLKQTEDFFEKHGPVTIILCRFVPIVRTYAPLVAGMAGMRYRTFIIYNMIGGILWGSGVVALGAALGQFDFVRNNIDLIFLLIVFISVVPGLVGMARKLADGHKQANTEPQENPAVQTAPVKTQEAQEAPQN	failed
MVGAIARWASLKIVMNPRQLTKTMNIQFLGNITTAILLAVVLQITLWPSAAQACTRILWNNNKLAVVVGRTMDWPESTEPELMVFPQGIKRNGGMLGDMLVVKDNPAQWTSKYGSVVTTVYGMGTVDGLNEKGLGMHMLYLTATDFGPRNPKKAGVQAGLWGQYLLDNAATVKEALALMNEIQPVMVALDDMKATVHLAIEDASGDSAILEYVEGKLVVHHGPEYRVMTNDPTYDQQLKFLETWDFTNATRQTPLPGNVDPKDRFVRASYYQMMLPEPKTEQEAIAGILAIARNTSVPFGAPNNIPGSLYNTEYRTAIDLTNRRYFFELTTSPNVIWVNLDQLNLAPGAPVLSLDPDNLDLSGNVTDKFTKVLKSPF	failed
MVGIRKRKDFFEDFGSELFDNLEEMIEALLEEMGDSVPFVYGFSIIHRPGEDPELREFGNVPEYPQQEENFFPSETKEPLIDIFENENMVHVLAEFPEIEKEDILLHATGQHLEIKVLGLSEYTEDVDLPVRVDPKSAKASYKNGVLEVTFRRCSEESPVEIEINLEHHHHHH	not failed
MVGIRKRKDFFEEFGSELFDNLEEMIEALLEDMGESVPFVYGFSIIRRPGEDPELREFGNISENSEDEENPFPSEIRDPLIDIFESEELIHVLAEIPEIEKEDLLLHATAQNLEIRILGASEYSQDIELPARVDPKSAKASYKNGVLEVTFKRCTEEMPVEIEIN	failed
MVHASQLNSYSLAILKLCLFILDFVLLCFFLMLTDEEIDSDSELDEYMEQQIAALPQNEINPEEDDESDSDEMGLDEDDDSSDEEDVEAEAPLKVAPPSKKMPNGAFEIAKGGKKNKSSGGKKRCPFPCGPSCKK	failed
MVIFIMKKRYICILPYSLSYGGVFIDCKEVIANYWNFRSSTYKNGINGFDEEERAVWKQIFENSLASGKRLKVLDVGTGTGFLALLFAEMGHEVSGIDLSEGMLEKARHNADNMGLEISLFHGDAENLPFEDCSFDLVVNKYLLWTLQEPASAVREWKRVLKPGGMIFAIDGNWFDPRPDRYIKRMLYGLAERFAKKNQYNLIFKKSYGPIRNSLPLYEKISPKNISFLFSETGLMNTEISPLLEVQKFQRNRHSFSRRIFENNSIFLISGQKNLEHHHHHH	failed
MVIIDWSLSVDRTIPKPLRIILRGVGQVFFCCNAVTGLIFLMALYIGGVTAGLAATAGVFSSTIAAHLLGFPEKDIDAGLYGFNGTLVGPCLFLFLENSPQLWLYVVLASILSTIVLAALMRILQPCDIPASTAPFILTCWMFMAAVYAFDSFSRGPLLPTAGIPVEAANISMIPVEIGYMAAAKGISEVMFADSVVVGILFLAGIAIHSLRGAAMALAGAIVGIVIPVLLGMDKSLIEMGLYAFNPVLAMMAVGWAFLKPSGRSMGLAFLAGIFTVICQAGLTGFLTPLGLPVLTFPFVLVMWVFLLAASRSKYWEYLNQGK	failed
MVIIGSKGCAKEILTALKWDNVEETVSLFDNINTDISDAYYDFPIIKSWNELEQHLKTDSKVIIGVGGGQRREVLARKIACLGGVLTTFISQKALVGGYDNTIEPGVVILSGATITCNVSIGQGTFINKSTVISHDVRIGRYCEVSPGAKVLGRAIIGDRTEIGANAVILPDVIVGADCKIGAGAVVTRNIDSHTTVAGVPARSITKSSNNAFKLKSKIRNLLYHIRIADFRKLREYNHYVFGKRKLMFLELLSHSWMYGASFENYYELQFFKKSRTECRQYLTSSLRHELTRQVNDPCEALVLKDKVRFSEVFEDILGRRVMTFDEIKRQMHDPYSISINEVVIKPIKGQAGQGIIFPMQNFTSLRQLHDYVISTVKKPDEYLYEERIIQHSALNKLNPSSLNTLRIVTYYDESINKVDVWSVVLRIGIKARTDNFATGGIAVLVDHRGVVCQPAIIKHPSGERFHIHPVSGEKITGCIIPYYDQAIALAKQAAMRIPKVRSIGWDVAITETGPYMLEGNDNWCMTLFQLPGGEGLRHLANSVCNMFSVYE	failed
MVIIVSMKANGFFDEQSSLKKSKIGLNLVWMFSLGHIFLITLSNVLVQYPFDMMGFHTTWGAFTYPAIFILTDLTTRIATANKARKIIMLSMTPGLILSYLVASYIEAGNNLNESGLSVLHLMPLRIALACFIAYVVGQLLDVAVFQRYRNRPAWWLAPTLSAVAGNFIDTALFFTIAFYHCSNPFLSQNWPEIAMVDVFFKIMISLIAFVPVYGLVLSILGIKTTNKLMV	failed
MVIRELNNNWQSHAFDGYEVNWTEQQQTVSCLHTLVYPLAQGQGLHVTGISWNSTGSVLACAYGRLDDGDWSTLKSYVCTWNLDRQGLNPQQPSVVVEVPSAVMCLAFHPTQPSHIAGGLYSGEVLVWDMSRPEDPLLWRTGLTDDTHTDPVYQVLWLPEPRHSHRFQVLSAATDGKVLLWRGSGAGQLRLTKGFALAVQQLPRSTKLKKPPRGETEVGVTSVAFSSFDSSLFVLGTEGGFPLKCSLASEVAALTRMPSSVPLRAPVQFTFSPHGGPVYSVSCSPFHRNLFLSAGTDGHVHLYSMLQAQPLTSLQLSHKYLFAVRWSPVRPLVFAAASGEGDVQLFDLQKSSQKPTVSITQTQDGSPVYCLEFNSQQTQLLAAGDAKGMVKVWQLSTAFTEQGPREVEDLDQLEAEITT	failed
MVISLVIVAVTATEIFEIVELPFEKTLSAISVGSLFNFSVAVVSKSGYLGVFGLMALESTFIPVPSEVILPLSGYLVYIHTFTFAAIIADAIVASMVGSFIDYYLGLYIGRPIIVKILGFFYVKEDSLVKAENWIDRWGASSVFFARFIPGIRSLISIPAGMLKMKVWVFALMTFLGSVIWSTILVYIGFKAGPYWSSAVHSFSVILDQIIIDAIFAACLAYIGYFIYLKIKTRTKPSY	failed
MVKDSEFLTLVFQSILDEIDVGLHVVDEHGNTIVYNNKMMQIEDMEKHDVLNKNLMDVFMFSKQQDSTLVQALQEGKTIKNVKQSYFNNKGQEITTINHTYPIVQDGKIRGAVEIAKDVTKLERLIRENMNKKGSTTYTFDSILGTSPAIQDVIENAKRATRTSSSVLLAGETGTGKELFAQSIHNGSDRSGGPFISQNCAALPDSLVESILFGTKKGAFTGAVDQPGLFEQAHGGTLLLDEINSLNLSLQAKLLRALQERKIRRIGSTKDTPIDVRIIATMNEDPIDAIAGERMRKDLYYRLSVVTLIIPPLRERKEDILLLASEFIQKNNHLFQMNVEHISDDVKQFFLSYDWPGNIRELEHMIEGAMNFMTDEQTITASHLPYQYRMKIKPADIPEPETPRHQPAADLKEKMESFEKYVIENVLRKHGHNISKAAQELGISRQSLQYRLKKFSHSSNE	failed
MVKELIEQGANVTGLVRDHVPQSNLYQGEHIKKMNIVRGSLEDLAVIERALGEYEIDTVFHLAAQAIVGVANRNPISTFEANILGTWNILEACRKHPLIKRVIVASSDKAYGDQENLPYDENMPLQGKHPYDVSKSCADLISHTYFHTYGLPVCITRCGNLYGGGDLNFNRIIPQTIQLVLNGEAPEIRSDGTFVRDYFYIEDAVQAYLLLAEKMEENNLAGEAFNFSNEIQLTVLELVEKILKKMNSNLKPKVLNQGSNEIKHQYLSAEKARKLLNWTPAYTIDEGLEKTIEWYTEFFKK	failed
